This is an account of results in patent US20120207760A1.

Common to all, as to details: remark: other sources report otherwise
Test [1] addresses recombinant soluble homotrimeric HA of A/Hong Kong/1073/99 - H9N2 (Influenza A virus A/Hong Kong/1073/99 (H9N2)). Description: micro-array; captured IgG, V5-tagged trimeric HA.
Test [2] has as its target T1, recombinant homotrimeric HA, A/Japan/305/57 H2N2 (Influenza A virus A/Japan/305/57 (H2N2)). The test is described as follows: trimeric HA microarray, transfection set 4.
The target of test [3] is T2, recombinant homotrimeric HA, A/South Carolina/1/18 H1N1 (Influenza A virus A/South Carolina/1/18 (H1N1)). The test is described as follows: trimeric HA microarray, transfection set 4.
The target in test [4] is T3, recombinant homotrimeric HA, A/California/4/09 H1N1 (Influenza A virus A/California/4/09 (H1N1)). The test is described as follows: trimeric HA microarray, transfection set 4.
The target of test [5] is T4, recombinant homotrimeric HA, A/swine/Ontario/01911-2/99 H4N6 (Influenza A virus A/swine/Ontario/01911-2/99 (H4N6)). Description: trimeric HA microarray, transfection set 4.
The target of test [6] is recombinant homotrimeric HA, A/Vietnam/1203/04 H5N1 (Influenza A virus A/Vietnam/1203/04 (H5N1)). The test is described as follows: trimeric HA microarray, transfection set 4.
Test [7] addresses T5, recombinant homotrimeric HA, A/Wisconsin/67/05 H3N2 (Influenza A virus A/Wisconsin/67/05 (H3N2)). The test is described as follows: trimeric HA microarray, transfection set 4.
Test [8] has as its target T1, recombinant homotrimeric HA, …. The test is described as follows: trimeric HA microarray, transfection set 5.
Test [9] has as its target T6, recombinant homotrimeric HA, A/Indonesia/5/05 H5N1 (Influenza A virus A/Indonesia/5/05 (H5N1)). Description: trimeric HA microarray, transfection set 5.
The target of test [10] is T7, recombinant homotrimeric HA, A/Solomon Islands/3/06 H1N1 (Influenza A virus A/Solomon Islands/3/06 (H1N1)). Description: trimeric HA microarray, transfection set 5.
The target of test [11] is T2, recombinant homotrimeric HA, A/South …. Description: trimeric HA microarray, transfection set 5.
For test [12], the target named is T3, recombinant homotrimeric HA, …. The test is described as follows: trimeric HA microarray, transfection set 5.
For test [13], the target named is T4, recombinant homotrimeric HA, …. Description: trimeric HA microarray, transfection set 5.
Test [14] addresses T5, recombinant homotrimeric HA, …. The test is described as follows: trimeric HA microarray, transfection set 5.
Test [15] has as its target recombinant soluble homotrimeric HA of A/swine/Ontario/01911-2/99 (H4N6) (Influenza A virus A/swine/Ontario/01911-2/99 (H4N6)). The test is described as follows: microarray, BCC supernatant IgG, trimeric HA.
Test [16] has as its target recombinant soluble homotrimeric HA of A/duck/Yangzhou/02/05 (H8N4) (Influenza A virus A/duck/Yangzhou/02/2005 (H8N4)). The test is described as follows: microarray, BCC supernatant IgG, trimeric HA.
For test [17], the target named is recombinant soluble homotrimeric HA of A/Egypt/3300-NAMRU3/08 - H5N1 (Influenza A virus A/Egypt/3300-NAMRU3/2008 (H5N1)). Description: micro-array; captured IgG, V5-tagged trimeric HA.
Test [18] deals with recombinant homotrimeric HA, A/chicken/Vietnam/NCVD-016/08 H5N1 (Influenza A virus A/chicken/Vietnam/NCVD-016/08 (H5N1)). Description: trimeric HA microarray, transfection set 4.
The target of test [19] is recombinant homotrimeric HA, A/Egypt/3300-NAMRU3/08 H5N1 (Influenza A virus A/Egypt/3300-NAMRU3/08 (H5N1)). Description: trimeric HA microarray, transfection set 4.
For test [20], the target named is T6, recombinant homotrimeric HA, …. Description: trimeric HA microarray, transfection set 4.
Test [21] deals with T7, recombinant homotrimeric HA, A/Solomon …. Description: trimeric HA microarray, transfection set 4.
In test [22] the target is recombinant homotrimeric HA, A/duck/Yangzhou/02/05 H8N4 (Influenza A virus A/duck/Yangzhou/02/2005 (H8N4)). The test is described as follows: trimeric HA microarray, transfection set 4.
Test [23] concerns the target recombinant homotrimeric HA, A/common magpie/Hong Kong/5052/07 H5N1 (Influenza A virus A/common magpie/Hong Kong/5052/07 (H5N1)). The test is described as follows: trimeric HA microarray, transfection set 4.
Test [24] addresses recombinant homotrimeric HA, A/Hong Kong/1073/99 H9N2 (Influenza A virus A/Hong Kong/1073/99 (H9N2)). The test is described as follows: trimeric HA microarray, transfection set 4.
Test [25] has as its target recombinant homotrimeric HA, A/northern shoveler/California/HKWF115/07 (Influenza A virus A/northern shoveler/California/HKWF115/2007 (H6N1)). The test is described as follows: trimeric HA microarray, transfection set 4.
The target of test [26] is recombinant homotrimeric HA, A/Hong Kong/2108/03 H9N2 (Influenza A virus A/Hong Kong/2108/03 (H9N2)). The test is described as follows: trimeric HA microarray, transfection set 4.
Test [27] has as its target recombinant soluble homotrimeric HA of A/northern shoveler/California/HKWF115/07 (Influenza A virus A/northern shoveler/California/HKWF115/2007). The test is described as follows: microarray, BCC supernatant IgG, trimeric HA.
The target in test [28] is recombinant soluble homotrimeric HA of A/Anhui/1/05 - H5N1 (Influenza A virus A/Anhui/1/2005 (H5N1)). The test is described as follows: micro-array; captured IgG, V5-tagged trimeric HA.
Test [29] has as its target recombinant soluble homotrimeric HA of A/northern shoveler/California/HKWF115/2007 - H6N1 (Influenza A virus A/northern shoveler/California/HKWF115/2007 (H6N1)). Description: micro-array; captured IgG, V5-tagged trimeric HA.
The target in test [30] is recombinant soluble homotrimeric HA of A/Hong Kong/156/97 - H5N1 (Influenza A virus A/Hong Kong/156/97 (H5N1)). The test is described as follows: micro-array; captured IgG, V5-tagged trimeric HA.

B1: TCN-536 (5095_N01) (antibody, V domains shown)
VH: QVQLQQWGAGLLKPSETLSLTCAVYGGSFSVSGYYWSWIRQPPGRGLEWIGEISHGGSTNYNPSLKSRVTISVDTTKNQFSLRLSSVTAADTAVYYCARGTDPDTEVYCRVGNCAAFDYWGQGSLVTVSS
VL: EIILAQSPGTLSLSPGERATLSCRASQFVSTRSLAWYQQRPGQAPRLLIYGASSRATGIPDRFSGSGSGTDFTLTISRLEPEDFAVYYCQHYGYSPRYAFGQGSKVEIK
As to B1, the Trimeric HA Binding: RLU in test [1] worked out at 115 RLU. Besides, the Trimeric HA Binding RLU in test [2] is 260 RLU; in [3] it was 39 RLU; in test [4] it was 49 RLU; in [5], 168 RLU; in [6], 182 RLU; in test [7], 20600 RLU.

B2: TCN-555 (5246_L16) (antibody, V domains shown)
VH: QVQLVQSGAEVKRPGSSVKVSCTASGGIFRKNAISWVRQAPGQGLEWMGGIIAVFNTANYAQKFQNRVKITADESGNTAYMELSSLTSDDTAVYYCASHPKYFYGSGSYPDFWGQGTLVTVSS
VL: QSALTQPRSVSGSPGQSITISCTGGSSDIGASNSVSWYQQHPGKAPKLVIFDVTERPSGVPHRFSGSKSGNTASLTVSGLQPDDEADYFCCAYGGKYLVVFGGGTKVTVL
Turning to B2, the Trimeric HA Binding RLU in test [8] was 16700 RLU; in [9], 33900 RLU; in test [10], 44600 RLU; in test [11], 48000 RLU; in test [12], 20200 RLU; in test [13] it was 4520 RLU. For the same molecule, the Trimeric HA Binding RLU in test [14] was found to be 14700 RLU. Moreover, the Trimeric HA Binding: RLU in test [15] amounted to 1950 RLU.

B3: TCN-539 (5056_A08) (antibody, V domains shown)
VH: QVQLVESGGGVVQPGRSLRLSCAASEITFITYAMHWVRQAPGKGLEWVALISDDGSNKFYADSVKGRFTISRDNSKNTLYLQMNSLRAEDTAAYYCAREGVYFDSGTYRGYFDYWGQETLVTVSS
VL: EIVLTQSPATLSLSPGERATLSCRASQSVSSYLAWYQQKPGQAPRLLIYDASNRATGIPARFSGSGSGTDFTLTISSLEPEDFAVYYCQQRSHWPPITFGQGTRLEIK
As for B3, the Trimeric HA Binding RLU in test [8] is 2560 RLU; in test [10] it was 871 RLU; in test [11], 5330 RLU; in test [13], 6510 RLU; in test [14] it was 58800 RLU. The Trimeric HA Binding: RLU in test [16] is 1490 RLU; in test [17], 24300 RLU.

B4: TCN-535 (5246_P19) (antibody, V domains shown)
VH: QVQLVQSGSEVKKPGTSVKVSCTASGSVFTNYGISWVRQAPGQGLEWMGGIIPLFGAAKYAQKFQGRVTITADESTKTVYMELSRLTSKDTAIYFCAKAPRVYEYYFDQWGQGTPVTVSS
VL: EIVLTQSPGTLSLSPGERATLSCRASQSVSSSQLAWYQQKPGQAPRLIIYGASTRATGIPDRFSGSGSGTDFTLTIGRLEPEDFAVFFCQQYSTSPPTFGQGTKVDFK
With B4, the Trimeric HA Binding RLU is 20900 RLU in test [18]; 21500 RLU in test [2]; 25300 RLU in [19]; 18200 RLU in [20]; 836 RLU in test [21]; 22400 RLU in test [3]. The Trimeric HA Binding RLU turned out to be 428 RLU in test [22]; 25200 RLU in test [4]; 25200 RLU in test [6]; 477 RLU in test [23]; 21200 RLU in [24]; 4450 RLU in [7]. In addition, the Trimeric HA Binding RLU came to 18100 RLU in test [25] and 18 RLU in test [26].

B5: TCN-545 (5082_I15) (antibody, V domains shown)
VH: QVQLQQWGAGLLKPSETLSLSCAVFGGSFSDYYWTWIRQPPGKGLEWIGEIKHSGRTNYNPSLESRVTISVDTSKNQFSLKLSSVTAADTAIYYCARGTDPDTEGYCRSGSCSAFDFWGQGTLVTVSS
VL: EIVLTQSPGTLSLSPGERATLSCRASHFVNYRSLAWYQQTPGQVPRLLIYGASTRATGIPDRFSGSGSGTDFTLTISRLEPEDFAVYFCQQYGGSPRYTFGQGTRLEIK
Turning to B5, the Trimeric HA Binding RLU in test [8] is 1360 RLU; in test [9] it was 5270 RLU; in [11], 900 RLU; in test [12] it was 818 RLU; in test [14], 32000 RLU. Also, the Trimeric HA Binding: RLU stood at 1170 RLU in test [27], 4880 RLU in [28], 2320 RLU in test [29] and 1560 RLU in test [30].
